Experiments:
[1] = tested on: NFκB (nuclear factor NF-kappa-B p100 subunit) pathway; experiment: U2OS NFκB pathway reporter cell line (Example 7); format: cell-based; details: 5000 cells/well; 360 min at 37 °C
Description: (§1) A reporter cell line was engineered to express an Enzyme Donor (ED) tagged carrier protein controlled by a pathway-inducible transcriptional response element. Pathway activation results in induced expressions of the ED-tagged protein. Addition of exogenous Enzyme Acceptor (EA), and buffer, lyses the cell and forces complementation of the ED and EA enzyme fragments.
In this example, the cell line is an NFκB (nuclear factor NF-kappa-B p100 subunit) pathway reporter cell line. The cells are U2OS cells that include a nucleic acid encoding a β-galactosidase donor fragment (ED) having the amino acid sequence […] (SEQ ID NO:30) operably coupled to a promoter region comprising an NFκB response element.
(§2) Cells were plated in a 96-well plate and incubated at 37° C. and 5% CO2 to allow the cells to attach and grow. Cells were then stimulated with a control agonist (here, CD40L), using the assay conditions described below. Following stimulation, signal was detected using the PathHunter® ProLabel®/ProLink™ Detection Kit (Eurofins DiscoverX Corporation) according to the recommended protocol.

CD40 receptor [2] = biological target: T1, CD40 receptor (Homo sapiens, UniProt P25942); experiment: NFkB EFC reporter assay cells, CD40L stimulation (FIG. 7); format: cell-based; details: 3h or 6h incubation
T1 construct: The cells also endogenously express CD40 (receptor); endogenous in cells; host or cells: U2OS
Description: Often multiple ligands acting through different cellular receptors will stimulate the same signaling pathway allowing the same EFC reporter assay to be used to study the function and inhibition of function for these multiple ligands. For example, in FIGS. 4-6 stimulation and inhibition of TNFα-stimulated NFkB signaling and gene expression was studied.

CD40 receptor [3] = biological target: T1, CD40 receptor; experiment: EFC-based versus Luciferase NFκB transcriptional reporter assay, CD40L; format: cell-based; details: 6h stimulation
Method: FIG. 13. […] U2OS cells stably transfected with a plasmid encoding an NFκB transcriptional response element driving expression of either the EFC reporter (left panel) or (Firefly) Luciferase-PEST were stimulated with a range of concentrations of CD40L for 6h followed by cell lysis, addition of excess EA, incubation for 1h and determination of luminescence (RLU). The luminescence detected indicates the extent of induction of the respective carrier protein by CD40L.
The EFC-based NFκB transcriptional reporter assay was over 35 times more sensitive to CD40L than the luciferase-based assay. Note that the reporter plasmids used to make the stable cell lines had identical elements with the only significant difference being the identity of the carrier protein. Specifically, both plasmids had the same promoter elements and both had the same protein destabilizing element (PEST sequence).

CD40 receptor [4] = biological target: T1, CD40 receptor; experiment: U2OS NF-κB pathway reporter assay with carrier protein (Example 12); format: cell-based; details: 5000 cells/well; 6 h at 37 °C
Description: as §1, with “a carrier protein-Enzyme” for “an Enzyme”, “carrier protein-ED-tagged” for “ED-tagged”
In this example, the cell line is a NFκB (nuclear factor NF-kappa-B p100 subunit) pathway reporter cell line. The cells are U2OS cells that include a nucleic acid encoding a reporter fragment and β-galactosidase donor fragment (ED) having the amino acid sequence […] (SEQ ID NO:30) operably coupled to a promoter region comprising a NFκB response element. The cells also endogenously express CD40 (receptor).
as §2

RANK = experiment: Comparison of U2OS NF-κB and U2OS RANK-NF-κB reporter cell lines (Example 16); format: cell-based; details: FIG. 24b versus FIG. 24a
Description: as §1, with “Two reporter” for “A reporter”, “cell lines were” for “cell line was”, “express a carrier protein-Enzyme” for “express an Enzyme”, “the carrier protein-ED-tagged” for “the ED-tagged”
In this example, a first cell line is a U2OS-NF-κB pathway reporter cell line and the second cell line is U2OS RANK-NF-κB cell line. The cells are U2OS for both the cell lines as prepared in this example 16. The U2OS-NF-κB cell line includes a nucleic acid encoding a reporter fragment and β-galactosidase donor fragment (ED) having the amino acid sequence […] (SEQ ID NO:30) operably coupled to a promoter region comprising a NFκB response element. The U2OS RANK-NF-κB cell line includes a nucleic acid encoding a reporter fragment and β-galactosidase donor fragment (ED) having the amino acid sequence […] (SEQ ID NO:30) operably coupled to a promoter region comprising a NFκB response element followed by co-expression of RANK-CD27 (receptor) in the above-developed U2OS NF-κB pathway reporter cell line.
Assay results for U2OS NF-κB cell line with CD40L ligand is shown in FIG. 24a and assay results for U2OS RANK NF-κB cell line with sRANK ligand is shown in FIG. 24b.

[5] = biological target: T2, RANK (Receptor activator of nuclear factor κ B receptor) (Homo sapiens, UniProt Q9Y6Q6); experiment: U2OS RANK-NFκB pathway reporter assay (Example 13); format: cell-based; details: 5000 cells/well; 16 h at 37 °C
T2 construct: expressed in transfected cells; host or cells: U2OS
T2 sequence (Q9Y6Q6 30-616): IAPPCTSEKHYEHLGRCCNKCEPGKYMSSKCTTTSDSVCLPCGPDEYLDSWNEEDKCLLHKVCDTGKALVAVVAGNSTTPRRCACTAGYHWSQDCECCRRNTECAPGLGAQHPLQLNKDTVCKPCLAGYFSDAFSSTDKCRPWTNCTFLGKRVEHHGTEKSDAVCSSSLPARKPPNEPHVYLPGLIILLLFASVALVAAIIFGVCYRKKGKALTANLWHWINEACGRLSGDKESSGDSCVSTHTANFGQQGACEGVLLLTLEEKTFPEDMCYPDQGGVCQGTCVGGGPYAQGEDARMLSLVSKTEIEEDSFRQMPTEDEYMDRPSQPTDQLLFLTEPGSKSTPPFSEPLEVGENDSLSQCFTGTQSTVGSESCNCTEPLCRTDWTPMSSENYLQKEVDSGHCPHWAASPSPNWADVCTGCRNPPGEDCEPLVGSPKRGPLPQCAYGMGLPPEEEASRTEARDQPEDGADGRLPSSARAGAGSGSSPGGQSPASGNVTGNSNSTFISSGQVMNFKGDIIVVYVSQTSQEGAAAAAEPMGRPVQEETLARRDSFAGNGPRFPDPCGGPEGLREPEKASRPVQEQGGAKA
Description: as §1, with “a carrier protein-Enzyme” for “an Enzyme”, “carrier protein-ED-tagged” for “ED-tagged”
In this example, the cell line is a NFκB (Nuclear factor NF-kappa-B p100 subunit) pathway reporter cell line. The cells are U2OS cells that include a nucleic acid encoding a reporter fragment and β-galactosidase donor fragment (ED) having the amino acid sequence […] (SEQ ID NO:30) operably coupled to a promoter region comprising a NFκB response element. To produce the RANK-NFκB reporter assay RANK (Receptor activator of nuclear factor κ B receptor) is co-expressed in the above-developed U2OS NFκB Pathway Reporter cells.
as §2, with “sRANKL),” for “CD40L),”

[6] = biological target: T3, RANK (Receptor activator of nuclear factor κ B receptor) co-expressed in U2OS NFκB pathway reporter cells (UniProt Q9Y6Q6); experiment: cell-based or functional assay
T3 sequence (looked up): T2 sequence (Q9Y6Q6 30-616)

T1 sequence (P25942 21-277): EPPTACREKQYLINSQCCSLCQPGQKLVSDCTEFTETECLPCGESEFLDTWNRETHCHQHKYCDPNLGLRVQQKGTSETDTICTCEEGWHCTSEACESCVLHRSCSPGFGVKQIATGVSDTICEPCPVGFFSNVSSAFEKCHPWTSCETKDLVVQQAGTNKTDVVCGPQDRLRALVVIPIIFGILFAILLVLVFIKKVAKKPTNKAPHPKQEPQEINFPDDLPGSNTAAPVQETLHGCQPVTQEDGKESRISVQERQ

CD40L: CD40 ligand, control agonist acting through the CD40 receptor
EC50 for control agonist stimulation [1]: 225.4 ng/mL | signal:background ratio at agonist EMAX [1]: 26.3 | response of endogenous CD40 receptor to ligand (CD40 receptor [2]): responded robustly | sensitivity of EFC-based assay relative to luciferase-based assay (CD40 receptor [3]): over 35 times | EC50 for control agonist stimulation (CD40 receptor [4]): 88.6 ng/mL | signal:background ratio (CD40 receptor [4]): 102.8

B1: soluble RANKL (ligand, UniProt O14788 143-317, looked up)
chain: EKAMVDGSWLDLAKRSKLEAQPFAHLTINATDIPSGSHKVSLSSWYHDRGWAKISNMTFSNGKLIVNQDGFYYLYANICFRHHETSGDLATEYLQLMVYVTKTSIKIPSSHTLMKGGSTKYWSGNSEFHFYSINVGGFFKLRSGEEISIEVSNPSLLDPDQDATYFGAFKVRDID
EC50 compared with U2OS NF-κB cell line with CD40L (RANK): lower EC50 | signal:background ratio compared with U2OS NF-κB cell line with CD40L (RANK): larger signal:background ratio | EC50 for control agonist stimulation [5]: 4.034 ng/mL | signal:background ratio [5]: 24.0 | EC50 for control agonist stimulation, U2OS RANK-NFκB pathway reporter cell line [6]: 4.03 ng/mL | signal:background ratio, U2OS RANK-NFκB pathway reporter cell line [6]: 24
